Target: T1, Leucine-rich repeat-containing protein 15 (LRRC15) on LRRC15-expressing cells (UniProt Q8TF66 22-581, limits assumed)
T1 construct: whole, on cells; also called leucine-rich repeat containing 15
T1 sequence (looked up): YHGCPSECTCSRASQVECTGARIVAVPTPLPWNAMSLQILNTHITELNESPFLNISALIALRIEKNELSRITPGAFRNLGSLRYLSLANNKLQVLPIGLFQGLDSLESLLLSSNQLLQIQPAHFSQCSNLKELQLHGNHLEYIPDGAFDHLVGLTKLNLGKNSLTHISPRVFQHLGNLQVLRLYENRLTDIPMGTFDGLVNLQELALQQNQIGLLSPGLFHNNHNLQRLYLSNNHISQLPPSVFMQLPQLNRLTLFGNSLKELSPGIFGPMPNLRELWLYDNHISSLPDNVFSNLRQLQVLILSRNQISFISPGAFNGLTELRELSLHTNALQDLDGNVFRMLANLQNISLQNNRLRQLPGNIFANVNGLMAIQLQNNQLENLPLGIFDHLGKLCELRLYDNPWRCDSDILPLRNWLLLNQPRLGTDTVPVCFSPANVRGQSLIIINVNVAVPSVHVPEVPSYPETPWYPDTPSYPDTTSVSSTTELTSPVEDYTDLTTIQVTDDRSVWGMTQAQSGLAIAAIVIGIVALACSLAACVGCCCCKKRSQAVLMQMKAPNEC
Assay: LigandTracer, radiolabeled antibody on live target cells
Description: DUNP 19 was developed by humanization of a hybridoma mAb generated from immunizing mice with stably transfected LRRC15-expressing 3T3 cells. […] Liquid chromatography-mass spectrometry (LC-MS) analysis of DUNP19 incubated with LRRC15-expressing cell lines confirmed molecular binding specificity. […] LigandTracer (Ridgeview Instruments) was utilized to assess binding interaction between live cells and Lutetium-177 labeled DUNP19 ([¹⁷⁷Lu]DUNP19). […] Internalization rate was studied by quantifying emitted fluorescence over time from SAOS2 cells incubated with pH-responsive dye-labeled DUNP19. Identification of colocalization of Alexa-488 labeled DUNP19 with intracellular markers (DAPI and LAMP1) in SAOS2 cells over time was applied to further confirm time of internalization.

- Kd: 0.329 nM
B1: Lutetium-177 labeled DUNP19 ([177Lu]DUNP19) (antibody, V domains shown)
VH: QVQLVQSGAEVKKPGASVKVSCKASGYTFTDYYIHWVRQAPGQGLEWMGWINPNSDGTNYAQNFLGRVTMTRDTSISTAYMELSRLRSDDSAVYHCVREGRYSTSPFDYWGQGTLVTVSS
VL: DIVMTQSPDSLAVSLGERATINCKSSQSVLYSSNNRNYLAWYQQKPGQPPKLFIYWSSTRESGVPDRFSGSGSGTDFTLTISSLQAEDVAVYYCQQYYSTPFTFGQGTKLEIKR
notes: also called 177Lu-DOTA-DUNP19

From patent US20230133775A1 (University of California, published 2023)
